According to patent US8053186:

What was measured:
[1] = target: All1/Af4 fusion protein (endogenous, SEMK2 cells with t(4;11)), Q03164
[2] = target: All1/Af9 fusion protein (endogenous, PER377 cells with t(9;11)), Q03164
Sequence of All1/Af9 fusion protein (endogenous, PER377 cells with t(9;11)), Q03164 (Q03164 other isoform, or with tags, fused parts or gaps): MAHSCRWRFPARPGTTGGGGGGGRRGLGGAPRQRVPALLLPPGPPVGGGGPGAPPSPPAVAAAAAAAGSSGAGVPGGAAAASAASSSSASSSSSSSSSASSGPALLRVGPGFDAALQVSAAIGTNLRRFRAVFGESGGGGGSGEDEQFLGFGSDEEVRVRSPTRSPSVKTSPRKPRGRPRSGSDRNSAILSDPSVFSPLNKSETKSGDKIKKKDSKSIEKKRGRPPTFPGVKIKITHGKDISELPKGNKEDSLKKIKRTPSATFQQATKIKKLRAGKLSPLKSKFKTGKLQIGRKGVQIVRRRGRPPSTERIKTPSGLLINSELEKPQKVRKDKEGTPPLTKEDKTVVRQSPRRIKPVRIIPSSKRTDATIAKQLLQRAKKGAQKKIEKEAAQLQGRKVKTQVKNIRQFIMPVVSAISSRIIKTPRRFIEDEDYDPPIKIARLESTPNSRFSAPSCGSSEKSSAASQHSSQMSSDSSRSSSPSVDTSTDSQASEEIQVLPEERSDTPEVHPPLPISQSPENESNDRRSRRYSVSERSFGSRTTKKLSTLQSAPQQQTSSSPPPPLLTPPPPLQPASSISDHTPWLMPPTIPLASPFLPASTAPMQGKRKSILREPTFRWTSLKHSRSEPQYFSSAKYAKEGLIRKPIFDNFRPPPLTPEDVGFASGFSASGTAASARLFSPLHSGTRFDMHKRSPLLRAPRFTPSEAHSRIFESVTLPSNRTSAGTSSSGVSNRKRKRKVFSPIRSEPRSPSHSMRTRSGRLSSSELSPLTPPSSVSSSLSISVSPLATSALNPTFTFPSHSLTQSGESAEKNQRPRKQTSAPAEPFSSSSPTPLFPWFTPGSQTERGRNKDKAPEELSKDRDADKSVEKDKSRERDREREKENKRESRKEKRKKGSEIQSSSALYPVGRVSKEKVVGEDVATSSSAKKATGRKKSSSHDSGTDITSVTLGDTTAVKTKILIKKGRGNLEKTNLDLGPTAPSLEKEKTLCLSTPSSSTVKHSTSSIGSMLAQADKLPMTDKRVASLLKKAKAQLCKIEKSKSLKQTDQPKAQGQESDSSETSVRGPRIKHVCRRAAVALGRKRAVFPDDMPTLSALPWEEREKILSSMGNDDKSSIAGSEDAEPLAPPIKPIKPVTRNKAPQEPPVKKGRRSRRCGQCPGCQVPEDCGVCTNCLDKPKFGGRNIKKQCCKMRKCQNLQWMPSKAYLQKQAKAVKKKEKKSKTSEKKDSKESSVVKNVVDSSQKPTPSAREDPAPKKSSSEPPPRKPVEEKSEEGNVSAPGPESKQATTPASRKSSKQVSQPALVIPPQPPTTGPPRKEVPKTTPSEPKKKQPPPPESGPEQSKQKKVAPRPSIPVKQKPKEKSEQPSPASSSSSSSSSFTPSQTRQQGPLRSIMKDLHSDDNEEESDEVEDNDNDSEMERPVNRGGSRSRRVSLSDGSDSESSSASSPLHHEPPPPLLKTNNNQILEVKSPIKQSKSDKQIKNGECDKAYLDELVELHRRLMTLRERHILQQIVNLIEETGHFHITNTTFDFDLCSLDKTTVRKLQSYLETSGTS

Sequence of All1/Af4 fusion protein (endogenous, SEMK2 cells with t(4;11)), Q03164 (Q03164 other isoform, or with tags, fused parts or gaps): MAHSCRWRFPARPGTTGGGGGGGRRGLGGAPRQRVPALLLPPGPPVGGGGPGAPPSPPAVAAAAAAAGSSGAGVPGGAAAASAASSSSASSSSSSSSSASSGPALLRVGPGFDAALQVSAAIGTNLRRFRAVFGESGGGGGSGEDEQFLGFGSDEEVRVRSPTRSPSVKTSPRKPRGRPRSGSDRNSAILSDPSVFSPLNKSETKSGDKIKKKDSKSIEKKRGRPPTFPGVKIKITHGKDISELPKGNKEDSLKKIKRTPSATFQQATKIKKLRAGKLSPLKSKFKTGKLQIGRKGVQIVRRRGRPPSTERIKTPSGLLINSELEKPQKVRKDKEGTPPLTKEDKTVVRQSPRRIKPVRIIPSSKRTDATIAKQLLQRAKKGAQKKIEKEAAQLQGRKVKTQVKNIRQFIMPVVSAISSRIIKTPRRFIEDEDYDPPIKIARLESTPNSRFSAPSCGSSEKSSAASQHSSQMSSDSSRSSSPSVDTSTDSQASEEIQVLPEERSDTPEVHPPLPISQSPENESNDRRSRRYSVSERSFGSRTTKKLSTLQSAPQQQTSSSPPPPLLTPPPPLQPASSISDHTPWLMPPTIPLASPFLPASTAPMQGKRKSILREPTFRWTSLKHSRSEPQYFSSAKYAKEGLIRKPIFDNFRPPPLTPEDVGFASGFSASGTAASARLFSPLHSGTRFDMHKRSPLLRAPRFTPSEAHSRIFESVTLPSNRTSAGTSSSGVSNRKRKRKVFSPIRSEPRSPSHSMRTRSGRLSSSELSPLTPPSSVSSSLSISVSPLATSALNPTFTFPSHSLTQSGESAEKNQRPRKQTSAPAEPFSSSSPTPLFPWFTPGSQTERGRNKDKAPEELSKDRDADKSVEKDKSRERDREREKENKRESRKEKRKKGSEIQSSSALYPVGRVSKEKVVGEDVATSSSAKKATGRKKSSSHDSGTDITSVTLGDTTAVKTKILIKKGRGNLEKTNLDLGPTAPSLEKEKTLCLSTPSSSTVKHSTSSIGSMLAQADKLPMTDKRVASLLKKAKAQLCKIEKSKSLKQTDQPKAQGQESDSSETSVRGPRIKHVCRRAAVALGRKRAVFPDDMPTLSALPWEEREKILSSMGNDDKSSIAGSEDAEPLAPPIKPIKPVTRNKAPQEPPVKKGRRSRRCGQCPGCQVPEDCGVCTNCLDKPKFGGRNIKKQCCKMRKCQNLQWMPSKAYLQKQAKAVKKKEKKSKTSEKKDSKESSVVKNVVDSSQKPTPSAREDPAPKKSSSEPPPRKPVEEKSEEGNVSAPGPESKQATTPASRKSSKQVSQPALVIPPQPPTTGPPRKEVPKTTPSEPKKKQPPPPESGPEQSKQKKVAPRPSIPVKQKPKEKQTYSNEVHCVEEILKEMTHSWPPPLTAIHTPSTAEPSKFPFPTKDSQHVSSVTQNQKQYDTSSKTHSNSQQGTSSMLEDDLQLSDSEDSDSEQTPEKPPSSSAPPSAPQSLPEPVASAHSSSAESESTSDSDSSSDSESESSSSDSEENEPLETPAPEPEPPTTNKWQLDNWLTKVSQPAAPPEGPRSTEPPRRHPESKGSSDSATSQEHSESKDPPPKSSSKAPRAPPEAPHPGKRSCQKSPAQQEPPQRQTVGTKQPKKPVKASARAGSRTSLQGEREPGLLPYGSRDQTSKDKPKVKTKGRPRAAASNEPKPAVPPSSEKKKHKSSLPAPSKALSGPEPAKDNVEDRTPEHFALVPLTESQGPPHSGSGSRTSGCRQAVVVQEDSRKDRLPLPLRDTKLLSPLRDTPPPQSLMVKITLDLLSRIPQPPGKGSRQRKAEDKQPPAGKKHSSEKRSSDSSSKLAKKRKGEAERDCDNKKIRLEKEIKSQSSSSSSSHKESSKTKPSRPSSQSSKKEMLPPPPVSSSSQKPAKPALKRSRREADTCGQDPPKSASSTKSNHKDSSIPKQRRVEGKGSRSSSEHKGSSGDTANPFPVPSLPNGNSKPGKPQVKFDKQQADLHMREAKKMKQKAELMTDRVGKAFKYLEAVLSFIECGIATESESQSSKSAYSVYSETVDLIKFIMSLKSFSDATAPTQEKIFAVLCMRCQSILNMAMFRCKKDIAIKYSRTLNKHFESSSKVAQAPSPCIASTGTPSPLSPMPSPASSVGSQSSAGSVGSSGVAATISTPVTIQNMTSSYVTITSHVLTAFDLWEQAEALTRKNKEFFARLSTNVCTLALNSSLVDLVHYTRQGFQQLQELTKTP

B1: Drosha (endogenous, immunoprecipitated from SEMK2 or PER377 nuclear extracts) (protein)
chain: MMQGNTCHRMSFHPGRGCPRGRGGHGARPSAPSFRPQNLRLLHPQQPPVQYQYEPPSAPSTTFSNSPAPNFLPPRPDFVPFPPPMPPSAQGPLPPCPIRPPFPNHQMRHPFPVPPCFPPMPPPMPCPNNPPVPGAPPGQGTFPFMMPPPSMPHPPPPPVMPQQVNYQYPPGYSHHNFPPPSFNSFQNNPSSFLPSANNSSSPHFRHLPPYPLPKAPSERRSPERLKHYDDHRHRDHSHGRGERHRSLDRRERGRSPDRRRQDSRYRSDYDRGRTPSRHRSYERSRERERERHRHRDNRRSPSLERSYKKEYKRSGRSYGLSVVPEPAGCTPELPGEIIKNTDSWAPPLEIVNHRSPSREKKRARWEEEKDRWSDNQSSGKDKNYTSIKEKEPEETMPDKNEEEEEELLKPVWIRCTHSENYYSSDPMDQVGDSTVVGTSRLRDLYDKFEEELGSRQEKAKAARPPWEPPKTKLDEDLESSSESECESDEDSTCSSSSDSEVFDVIAEIKRKKAHPDRLHDELWYNDPGQMNDGPLCKCSAKARRTGIRHSIYPGEEAIKPCRPMTNNAGRLFHYRITVSPPTNFLTDRPTVIEYDDHEYIFEGFSMFAHAPLTNIPLCKVIRFNIDYTIHFIEEMMPENFCVKGLELFSLFLFRDILELYDWNLKGPLFEDSPPCCPRFHFMPRFVRFLPDGGKEVLSMHQILLYLLRCSKALVPEEEIANMLQWEELEWQKYAEECKGMIVTNPGTKPSSVRIDQLDREQFNPDVITFPIIVHFGIRPAQLSYAGDPQYQKLWKSYVKLRHLLANSPKVKQTDKQKLAQREEALQKIRQKNTMRREVTVELSSQGFWKTGIRSDVCQHAMMLPVLTHHIRYHQCLMHLDKLIGYTFQDRCLLQLAMTHPSHHLNFGMNPDHARNSLSNCGIRQPKYGDRKVHHMHMRKKGINTLINIMSRLGQDDPTPSRINHNERLEFLGDAVVEFLTSVHLYYLFPSLEEGGLATYRTAIVQNQHLAMLAKKLELDRFMLYAHGPDLCRESDLRHAMANCFEALIGAVYLEGSLEEAKQLFGRLLFNDPDLREVWLNYPLHPLQLQEPNTDRQLIETSPVLQKLTEFEEAIGVIFTHVRLLARAFTLRTVGFNHLTLGHNQRMEFLGDSIMQLVATEYLFIHFPDHHEGHLTLLRSSLVNNRTQAKVAEELGMQEYAITNDKTKRPVALRTKTLADLLESFIAALYIDKDLEYVHTFMNVCFFPRLKEFILNQDWNDPKSQLQQCCLTLRTEGKEPDIPLYKTLQTVGPSHARTYTVAVYFKGERIGCGKGPSIQQAEMGAAMDALEKYNFPQMAHQKRFIERKYRQELKEMRWEREHQEREPDETEDIKK
Q: For B1, which “in vitro cleavage of miR-191 and miR-155 probes by immuno-purified Drosha” value [1] is on record?
A: The value was “Drosha containing All1/Af4 exhibited the strongest processing activity”.

Q: And the “in vitro cleavage of miR-191 and miR-155 probes by immuno-purified Drosha” value [2]?
A: The value was “Drosha containing All1/Af9 had less processing activity, similar to that of the Drosha:FLAG preparation”.
